Laboratory results reported in patent publication EP3048116A1 (International-Drug-Development-Biotech, dated 2016).

Molecular target: T1, Purified human sDR5 (human, UniProt O14763 56-182, limits assumed)
T1 construct: Analyte in the Biacore assay; only called 'purified human sDR5'
Test: SPR (Biacore), MAb captured on immobilised GAH, sDR5 injected at 40 nM to 2.5 nM

Kd | Binder
0.426 nM | Hz033-Mut7 (antibody, human IgG1, kappa, also called Hz033 Mut7 (K326A E333A P396L)) heavy: EVQLQQSGAEVVKPGASVKLSCKASGFNIKDTFIHWVKQAPGQGLEWIGRIDPANGNTKYDPKFQGKATITTDTSSNTAYMELSSLRSEDTAVYYCVRGLYTYYFDYWGQGTLVTVSSASTKGPSVFPLAPSSKSTSGGTAALGCLVKDYFPEPVTVSWNSGALTSGVHTFPAVLQSSGLYSLSSVVTVPSSSLGTQTYICNVNHKPSNTKVDKKVEPKSCDKTHTCPPCPAPELLGGPSVFLFPPKPKDTLMISRTPEVTCVVVDVSHEDPEVKFNWYVDGVEVHNAKTKPREEQYNSTYRVVSVLTVLHQDWLNGKEYKCKVSNAALPAPIAKTISKAKGQPREPQVYTLPPSRDELTKNQVSLTCLVKGFYPSDIAVEWESNGQPENNYKTTPLVLDSDGSFFLYSKLTVDKSRWQQGNVFSCSVMHEALHNHYTQKSLSLSPGK light: not shown
0.4 nM | Hz033-Mut8 (antibody, human IgG1, kappa, also called Hz033 Mut8 (Y300L K326A E333A P396L)) heavy: EVQLQQSGAEVVKPGASVKLSCKASGFNIKDTFIHWVKQAPGQGLEWIGRIDPANGNTKYDPKFQGKATITTDTSSNTAYMELSSLRSEDTAVYYCVRGLYTYYFDYWGQGTLVTVSSASTKGPSVFPLAPSSKSTSGGTAALGCLVKDYFPEPVTVSWNSGALTSGVHTFPAVLQSSGLYSLSSVVTVPSSSLGTQTYICNVNHKPSNTKVDKKVEPKSCDKTHTCPPCPAPELLGGPSVFLFPPKPKDTLMISRTPEVTCVVVDVSHEDPEVKFNWYVDGVEVHNAKTKPREEQYNSTLRVVSVLTVLHQDWLNGKEYKCKVSNAALPAPIAKTISKAKGQPREPQVYTLPPSRDELTKNQVSLTCLVKGFYPSDIAVEWESNGQPENNYKTTPLVLDSDGSFFLYSKLTVDKSRWQQGNVFSCSVMHEALHNHYTQKSLSLSPGK light: not shown
0.464 nM | Hz033-Mut11 (antibody, human IgG1, kappa, also called Hz033 Mut11 (F243L R292P Y300L V305L K326A E333A P396L)) heavy: EVQLQQSGAEVVKPGASVKLSCKASGFNIKDTFIHWVKQAPGQGLEWIGRIDPANGNTKYDPKFQGKATITTDTSSNTAYMELSSLRSEDTAVYYCVRGLYTYYFDYWGQGTLVTVSSASTKGPSVFPLAPSSKSTSGGTAALGCLVKDYFPEPVTVSWNSGALTSGVHTFPAVLQSSGLYSLSSVVTVPSSSLGTQTYICNVNHKPSNTKVDKKVEPKSCDKTHTCPPCPAPELLGGPSVFLLPPKPKDTLMISRTPEVTCVVVDVSHEDPEVKFNWYVDGVEVHNAKTKPPEEQYNSTLRVVSLLTVLHQDWLNGKEYKCKVSNAALPAPIAKTISKAKGQPREPQVYTLPPSRDELTKNQVSLTCLVKGFYPSDIAVEWESNGQPENNYKTTPLVLDSDGSFFLYSKLTVDKSRWQQGNVFSCSVMHEALHNHYTQKSLSLSPGK light: not shown
